# Reference: the DeepSol protein solubility set
# Assay: soluble on expression in E. coli; label from the status in PepcDB or PDB records
row,Sequence,soluble on expression in E. coli
1,SLTRAVAALLPDGKRLHLQHGPIDLIIGAEGGPGAREAAFVTATARFETVLAELVGELPLLKTELAPDAPLPLGPVARRMDTACRPLMALRLTRMAAVAGAVADEVLAAMLSSTPLTRAYVNNGGDIALHLTGDTRFTLAMATPDGRDLGRISLGTGDRIGGIATSGLGGRSLSLGIAESVTVLAPSAAGADAAATLIANATDLPGHPAIRRAPANTVKDDSDLGQRPVVTHCGPLDRNEVLHALENGRKLAVEMIANGHIRSAHLSLRGQSCQAGAIPVIAPERRLALA,soluble
2,MDTSSSCKAFLLDSALAVKWPRDKETAPRLPQHRGWNPGDAPQTSQGRGTGTPVGAETKTLPSTDVAQPPSDSDAVGPRSGFPPQPSLPLCRAPGQLGEKQLPSSTSDDRVKDEFSDLSEGDVLSEDENDKKQNAQSSDESFEPYPERKVSGKKSESKEAKKSEEPRIRKKPGPKPGWKKKLRCEREELPTIYKCPYQGCTAVYRGADGMKKHIKEHHEEVRERPCPHPGCNKVFMIDRYLQRHVKLIHTEVRNYICDECGQTFKQRKHLLVHQMRHSGAKPLQCEVCGFQCRQRASLKYHMTKHKAETELDFACDQCGRRFEKAHNLNVHMSMVHPLTQTQDKALPLEAEPPPGPPSPSVTTEGQAVKPEPT,soluble
